Target: the molecule itself
Assay: native gel or EMSA

B1: recombinant His6-TAF11 (natural protein)
chain: not shown
stoichiometry N: 4

Source: PMC4560963 (Molecular cell, 2015)
